Data reported in paper PMC6028238.

Tests used:
[1] = target: human C4b-binding protein (C4BP), purified from plasma (human) (UniProt P04003); assay: negative-stain electron microscopy
[2] = target: protein H on the surface of S. pyogenes AP1 bacteria (Streptococcus pyogenes (endogenous in strain AP1)); assay: electron microscopy with gold-labelled protein
[3] = target: protein H on the surface of S. pyogenes AP1 bacteria (Streptococcus pyogenes (endogenous in strain AP1)); assay: flow cytometry on cells

With “protein H (Streptococcus pyogenes), recombinant (natural protein)” the percent of C4BP molecules complexed with protein H, with IgG [1] was 83% and the percent of C4BP molecules complexed with protein H, without IgG [1] was 7%.

For “human C4b-binding protein (C4BP), purified from plasma (from UniProt P04003 49-597; P20851 18-252) (complex)”, the gold particles of C4BP bound to the surface, with IgG (gold particles/mm^2) [2] was 917 and the gold particles of C4BP bound to the surface, without IgG (gold particles/mm^2) [2] was 82.

B1: human C4BP in serum of human C4BP transgenic mice (natural protein)
chain: NCGPPPTLSFAAPMDITLTETRFKTGTTLKYTCLPGYVRSHSTQTLTCNSDGEWVYNTFCIYKRCRHPGELRNGQVEIKTDLSFGSQIEFSCSEGFFLIGSTTSRCEVQDRGVGWSHPLPQCEIVKCKPPPDIRNGRHSGEENFYAYGFSVTYSCDPRFSLLGHASISCTVENETIGVWRPSPPTCEKITCRKPDVSHGEMVSGFGPIYNYKDTIVFKCQKGFVLRGSSVIHCDADSKWNPSPPACEPNSCINLPDIPHASWETYPRPTKEDVYVVGTVLRYRCHPGYKPTTDEPTTVICQKNLRWTPYQGCEALCCPEPKLNNGEITQHRKSRPANHCVYFYGDEISFSCHETSRFSAICQGDGTWSPRTPSCGDICNFPPKIAHGHYKQSSSYSFFKEEIIYECDKGYILVGQAKLSCSYSHWSAPAPQCKALCRKPELVNGRLSVDKDQYVEPENVTIQCDSGYGVVGPQSITCSGNRTWYPEVPKCEWETPEGCEQVLTGKRLMQCLPNPEDVKMALEVYKLSLEIEQLELQRDSARQSTLDKEL
In the case of B1, the C4BP binding without IgG at 30 °C, as percent of the binding with IVIG [3] is reported as 40%, the C4BP binding without IgG at 39 °C, as percent of the binding with IVIG [3] is reported as under 10% and the fold increase of binding with 1 mg/ml IVIG against no IVIG [3] is reported as 2 fold.
